Sequences and labels used below:
B2: P-selectin glycoprotein ligand-1 (PSGL-1) from activated human T-cells (natural protein, human (endogenous in activated T-cells), UniProt Q14242 42-412, looked up)
chain: QATEYEYLDYDFLPETEPPEMLRNSTDTTPLTGPGTPESTTVEPAARRSTGLDAGGAVTELTTELANMGNLSTDSAAMEIQTTQPAATEAQTTQPVPTEAQTTPLAATEAQTTRLTATEAQTTPLAATEAQTTPPAATEAQTTQPTGLEAQTTAPAAMEAQTTAPAAMEAQTTPPAAMEAQTTQTTAMEAQTTAPEATEAQTTQPTATEAQTTPLAAMEALSTEPSATEALSMEPTTKRGLFIPFSVSSVTHKGIPMAASNLSVNYPVGAPDHISVKQCLLAILILALVATIFFVCTVVLAVRLSRKGHMYPVRNYSPTEMVCISSLLPDGGEGPSATANGGLSKAKSPGLTPEPREDREGDDLTLHSFLP
modifications: O-glycans
notes: P-selectin glycoprotein ligand-1 (CD162), human; also called CD162
B3: recombinant mouse E-selectin/CD62E Fc chimera (E-Ig) (Fc fusion, UniProt Q00690 22-557, looked up)
chain: WYYNASSELMTYDEASAYCQRDYTHLVAIQNKEEINYLNSNLKHSPSYYWIGIRKVNNVWIWVGTGKPLTEEAQNWAPGEPNNKQRNEDCVEIYIQRTKDSGMWNDERCNKKKLALCYTASCTNASCSGHGECIETINSYTCKCHPGFLGPNCEQAVTCKPQEHPDYGSLNCSHPFGPFSYNSSCSFGCKRGYLPSSMETTVRCTSSGEWSAPAPACHVVECEALTHPAHGIRKCSSNPGSYPWNTTCTFDCVEGYRRVGAQNLQCTSSGIWDNETPSCKAVTCDAIPQPQNGFVSCSHSTAGELAFKSSCNFTCEQSFTLQGPAQVECSAQGQWTPQIPVCKAVQCEALSAPQQGNMKCLPSASGPFQNGSSCEFSCEEGFELKGSRRLQCGPRGEWDSKKPTCSAVKCDDVPRPQNGVMECAHATTGEFTYKSSCAFQCNEGFSLHGSAQLECTSQGKWTQEVPSCQVVQCPSLDVPGKMNMSCSGTAVFGTVCEFTCPDDWTLNGSAVLTCGATGRWSGMPPTCEAPVSPTRP
notes: E-selectin (CD62E), mouse; Mouse is named only in the flow cytometry methods; also called E-selectin-hIg chimera; recombinant E-selectin–Ig chimera; source: bought: R&D

Assay [1] has as its target CD44/HCELL from activated human T-cells (human (endogenous in activated T-cells)).
The target of assay [2] is B3. The assay can be described thus: SPR; BIAcore CM5 chip; CD44 and PSGL-1 captured from activated T-cell lysate by immobilised mAbs; 10 E-Ig concentrations (0.456-466.7 nM) injected at 30 ul/min in 150 mM NaCl running buffer; KD from steady-state fit; apparent koff from the buffer wash after the last injection; apparent kon calculated (Eq. 1 in Supplementary Material); isotype control subtracted. The settings on record: both partners purified.

Assay [3] concerns the target CD44/HCELL from activated human T-cells (human (endogenous in activated T-cells)). Described as above.
For assay [4], the target named is B2. The assay is described as above. Conditions: both partners purified.

B1: E-selectin on CHO cells expressing E-selectin (CHO-E) (receptor)
chain: WSYNTSTEAMTYDEASAYCQQRYTHLVAIQNKEEIEYLNSILSYSPSYYWIGIRKVNNVWVWVGTQKPLTEEAKNWAPGEPNNRQKDEDCVEIYIKREKDVGMWNDERCSKKKLALCYTAACTNTSCSGHGECVETINNYTCKCDPGFSGLKCEQIVNCTALESPEHGSLVCSHPLGNFSYNSSCSISCDRGYLPSSMETMQCMSSGEWSAPIPACNVVECDAVTNPANGFVECFQNPGSFPWNTTCTFDCEEGFELMGAQSLQCTSSGNWDNEKPTCKAVTCRAVRQPQNGSVRCSHSPAGEFTFKSSCNFTCEEGFMLQGPAQVECTTQGQWTQQIPVCEAFQCTALSNPERGYMNCLPSASGSFRYGSSCEFSCEQGFVLKGSKRLQCGPTGEWDNEKPTCEAVRCDAVHQPPKGLVRCAHSPIGEFTYKSSCAFSCEEGFELHGSTQLECTSQGQWTEEVPSCQVVKCSSLAVPGKINMSCSGEPVFGTVCKFACPEGWTLNGSAARTCGATGHWSGLLPTCEAPTESNIPLVAGLSAAGLSLLTLAPFLLWLRKCLRKAKKFVPASSCQSLESDGSYQKPSYIL
In assay [1], B1 gave an average velocity of CHO-E cells rolling over the immuno-purified ligand on a blot (blot rolling assay, 0.5 dyn cm^-2, 2 mM Ca2+) of 3.3.
The term koff denotes the first-order rate constant of dissociation. For orientation: kon means the second-order rate constant of association. Consider B2, for which, in assay [2], the Kd was 467 nM, the koff was 2.5e-05 s⁻¹ and the kon is 52 M⁻¹ s⁻¹.
For B3, in assay [3], the Kd was 777 nM, the off-rate constant (koff) is 4.9e-05 s⁻¹ and the on-rate (kon) was 61 M⁻¹ s⁻¹. The “stoichiometry N” value in assay [4] is ≥ 2 E-selectin dimers per PSGL-1 dimer.

Source of the values: article PMC5413510, “An Analysis of Trafficking Receptors Shows that CD44 and P-Selectin Glycoprotein Ligand-1 Collectively Control the Migration of Activated Human T-Cells” (Frontiers in Immunology, 2017).
